Values quoted from earlier work as cited in US20100086958A1, “NOVEL ENZYME” (priority 2008, published 2010).
Like-named read-outs stand apart in the source and are kept apart here.

Experiments:
[1] = literature, cited from earlier work; for Km: read-out: Km NAD^+
[2] = literature, cited from earlier work; for Km: read-out: Km NADP^+
[3] = unit = μmol formate oxidized per min; literature; cited from earlier work
[4] = ADHs (DroADH, SceADH), AlaDHs, GAPDH

Molecule	kcat NAD^+ ([1]; PTDH) [s⁻¹]	Km ([1]; PTDH) [µM]	kcat NADP^+ ([2]; PTDH) [s⁻¹]	Km ([2]; PTDH) [µM]	kcat NAD^+ [1, 4] [s⁻¹]	Km [1, 4] [µM]	also measured
WT_PstPTDH: wild type phosphate dehydrogenase from Pseudomonas stutzeri (protein, UniProt O69054 1-336, looked up) Phosphonate dehydrogenase: MLPKLVITHRVHDEILQLLAPHCELMTNQTDSTLTREEILRRCRDAQAMMAFMPDRVDADFLQACPELRVVGCALKGFDNFDVDACTARGVWLTFVPDLLTVPTAELAIGLAVGLGRHLRAADAFVRSGEFQGWQPQFYGTGLDNATVGILGMGAIGLAMADRLQGWGATLQYHEAKALDTQTEQRLGLRQVACSELFASSDFILLALPLNADTQHLVNAELLALVRPGALLVNPCRGSVVDEAAVLAALERGQLGGYAADVFEMEDWARADRPRLIDPALLAHPNTLFTPHIGSAVRAVRLEIERCAAQNIIQVLAGARPINAANRLPKAEPAAC	2.93 ± 0.14	53 ± 9	1.41 ± 0.0083	2510 ± 410	–	–	–
E175A/A176R PstPTDH: E175A/A176R mutant of phosphate dehydrogenase from Pseudomonas stutzeri (protein, UniProt O69054 1-336, looked up, variant E175A A176R) Phosphonate dehydrogenase: MLPKLVITHRVHDEILQLLAPHCELMTNQTDSTLTREEILRRCRDAQAMMAFMPDRVDADFLQACPELRVVGCALKGFDNFDVDACTARGVWLTFVPDLLTVPTAELAIGLAVGLGRHLRAADAFVRSGEFQGWQPQFYGTGLDNATVGILGMGAIGLAMADRLQGWGATLQYHARKALDTQTEQRLGLRQVACSELFASSDFILLALPLNADTQHLVNAELLALVRPGALLVNPCRGSVVDEAAVLAALERGQLGGYAADVFEMEDWARADRPRLIDPALLAHPNTLFTPHIGSAVRAVRLEIERCAAQNIIQVLAGARPINAANRLPKAEPAAC	3.94 ± 0.0083	20 ± 1.3	1.9 ± 0.0083	3.5 ± 0.5	–	–	–
E175A PstPTDH: E175A mutant of phosphate dehydrogenase from Pseudomonas stutzeri (protein, UniProt O69054 1-336, looked up, variant E175A) Phosphonate dehydrogenase: MLPKLVITHRVHDEILQLLAPHCELMTNQTDSTLTREEILRRCRDAQAMMAFMPDRVDADFLQACPELRVVGCALKGFDNFDVDACTARGVWLTFVPDLLTVPTAELAIGLAVGLGRHLRAADAFVRSGEFQGWQPQFYGTGLDNATVGILGMGAIGLAMADRLQGWGATLQYHAAKALDTQTEQRLGLRQVACSELFASSDFILLALPLNADTQHLVNAELLALVRPGALLVNPCRGSVVDEAAVLAALERGQLGGYAADVFEMEDWARADRPRLIDPALLAHPNTLFTPHIGSAVRAVRLEIERCAAQNIIQVLAGARPINAANRLPKAEPAAC	3.5 ± 0.005	16 ± 0.8	2.18 ± 0.0067	144 ± 14	–	–	–
A176R PstPTDH: A176R mutant of phosphate dehydrogenase from Pseudomonas stutzeri (protein, UniProt O69054 1-336, looked up, variant A176R) Phosphonate dehydrogenase: MLPKLVITHRVHDEILQLLAPHCELMTNQTDSTLTREEILRRCRDAQAMMAFMPDRVDADFLQACPELRVVGCALKGFDNFDVDACTARGVWLTFVPDLLTVPTAELAIGLAVGLGRHLRAADAFVRSGEFQGWQPQFYGTGLDNATVGILGMGAIGLAMADRLQGWGATLQYHERKALDTQTEQRLGLRQVACSELFASSDFILLALPLNADTQHLVNAELLALVRPGALLVNPCRGSVVDEAAVLAALERGQLGGYAADVFEMEDWARADRPRLIDPALLAHPNTLFTPHIGSAVRAVRLEIERCAAQNIIQVLAGARPINAANRLPKAEPAAC	4.28 ± 0.0083	60 ± 7	2.18 ± 0.0067	77 ± 8.4	–	–	–
WT_BstGAPDH: wild type glyceraldehydes-3-phosphate dehydrogenase from Bacillus stearothermophilus (protein, UniProt P00362 2-335, looked up) Glyceraldehyde-3-phosphate …: AVKVGINGFGRIGRNVFRAALKNPDIEVVAVNDLTDANTLAHLLKYDSVHGRLDAEVSVNGNNLVVNGKEIIVKAERDPENLAWGEIGVDIVVESTGRFTKREDAAKHLEAGAKKVIISAPAKNEDITIVMGVNQDKYDPKAHHVISNASCTTNCLAPFAKVLHEQFGIVRGMMTTVHSYTNDQRILDLPHKDLRRARAAAESIIPTTTGAAKAVALVLPELKGKLNGMAMRVPTPNVSVVDLVAELEKEVTVEEVNAALKAAAEGELKGILAYSEEPLVSRDYNGSTVSSTIDALSTMVIDGKMVKVVSWYDNETGYSHRVVDLAAYIASKGL	–	–	–	–	280	150	–
WT_PstXDH: wild type xylitol dehydrogenase from Pichia stipitis (protein, UniProt P22144 1-363, looked up) D-xylulose reductase: MTANPSLVLNKIDDISFETYDAPEISEPTDVLVQVKKTGICGSDIHFYAHGRIGNFVLTKPMVLGHESAGTVVQVGKGVTSLKVGDNVAIEPGIPSRFSDEYKSGHYNLCPHMAFAATPNSKEGEPNPPGTLCKYFKSPEDFLVKLPDHVSLELGALVEPLSVGVHASKLGSVAFGDYVAVFGAGPVGLLAAAVAKTFGAKGVIVVDIFDNKLKMAKDIGAATHTFNSKTGGSEELIKAFGGNVPNVVLECTGAEPCIKLGVDAIAPGGRFVQVGNAAGPVSFPITVFAMKELTLFGSFRYGFNDYKTAVGIFDTNYQNGRENAPIDFEQLITHRYKFKDAIEAYDLVRAGKGAVKCLIDGPE	–	–	–	–	–	–	kcat NAD^+ ([1]; ADHs (KlADH III), G6PDHs, XDHs): 17.5 ± 0.5 s⁻¹; Km ([1]; ADHs (KlADH III), G6PDHs, XDHs): 381 ± 30 µM; kcat NADP^+ ([2]; ADHs (KlADH III), G6PDHs, XDHs): 1.83 ± 0.167 s⁻¹
WT_DroADH: wild type ADH from Drosophila (protein, UniProt P00334 2-256, looked up) Alcohol dehydrogenase: SFTLTNKNVIFVAGLGGIGLDTSKELLKRDLKNLVILDRIENPAAIAELKAINPKVTVTFYPYDVTVPIAETTKLLKTIFAQLKTVDVLINGAGILDDHQIERTIAVNYTGLVNTTTAILDFWDKRKGGPGGIICNIGSVTGFNAIYQVPVYSGTKAAVVNFTSSLAKLAPITGVTAYTVNPGITRTTLVHKFNSWLDVEPQVAEKLLAHPTQPSLACAENFVKAIELNQNGAIWKLDLGTLEAIQWTKHWDSGI	–	–	–	–	10.2	48 ± 1	kcat NADP^+ [2, 4]: 0.715 s⁻¹; Km [2, 4]: 3090 ± 700 µM
A46R DroADH: A46R mutant of ADH from Drosophila (protein, UniProt P00334 2-256, looked up, variant A46R) Alcohol dehydrogenase: SFTLTNKNVIFVAGLGGIGLDTSKELLKRDLKNLVILDRIENPARIAELKAINPKVTVTFYPYDVTVPIAETTKLLKTIFAQLKTVDVLINGAGILDDHQIERTIAVNYTGLVNTTTAILDFWDKRKGGPGGIICNIGSVTGFNAIYQVPVYSGTKAAVVNFTSSLAKLAPITGVTAYTVNPGITRTTLVHKFNSWLDVEPQVAEKLLAHPTQPSLACAENFVKAIELNQNGAIWKLDLGTLEAIQWTKHWDSGI	–	–	–	–	7.3	57 ± 3	kcat NADP^+ [2, 4]: 1.9 s⁻¹; Km [2, 4]: 1270 ± 100 µM
WT_SceADH: wild type ADH from Saccharomyces cerevisiae (protein, UniProt P00330 2-348, looked up) Alcohol dehydrogenase 1: SIPETQKGVIFYESHGKLEYKDIPVPKPKANELLINVKYSGVCHTDLHAWHGDWPLPVKLPLVGGHEGAGVVVGMGENVKGWKIGDYAGIKWLNGSCMACEYCELGNESNCPHADLSGYTHDGSFQQYATADAVQAAHIPQGTDLAQVAPILCAGITVYKALKSANLMAGHWVAISGAAGGLGSLAVQYAKAMGYRVLGIDGGEGKEELFRSIGGEVFIDFTKEKDIVGAVLKATDGGAHGVINVSVSEAAIEASTRYVRANGTTVLVGMPAGAKCCSDVFNQVVKSISIVGSYVGNRADTREALDFFARGLVKSPIKVVGLSTLPEIYEKMEKGQIVGRYVVDTSK	–	–	–	–	360	160	–
WT_17β-HSDHs: wild type human estrogenic 17β-hydroxysteroid dehydrogenase (protein, UniProt P14061 2-328, looked up) 17-beta-hydroxysteroid …: ARTVVLITGCSSGIGLHLAVRLASDPSQSFKVYATLRDLKTQGRLWEAARALACPPGSLETLQLDVRDSKSVAAARERVTEGRVDVLVCNAGLGLLGPLEALGEDAVASVLDVNVVGTVRMLQAFLPDMKRRGSGRVLVTGSVGGLMGLPFNDVYCASKFALEGLCESLAVLLLPFGVHLSLIECGPVHTAFMEKVLGSPEEVLDRTDIHTFHRFYQYLAHSKQVFREAAQNPEEVAEVFLTALRAPKPTLRYFTTERFLPLLRMRLDDPSGSNYVTAMHREVFGDVPAKAEAGAEAGGGAGPGAEDEAGRGAVGDPELGDPPAAPQ	–	–	–	–	–	–	kcat NAD^+ ([1]; 17β-HSDHs): 7.5 ± 0.1 s⁻¹; Km ([1]; 17β-HSDHs): 11.8 ± 0.8 µM; kcat NADP^+ ([2]; 17β-HSDHs): 4.2 ± 0.2 s⁻¹
L36D 17β-HSDHs: L36D mutant of human estrogenic 17β-hydroxysteroid dehydrogenase (protein, UniProt P14061 2-328, looked up, variant L36D) 17-beta-hydroxysteroid …: ARTVVLITGCSSGIGLHLAVRLASDPSQSFKVYATDRDLKTQGRLWEAARALACPPGSLETLQLDVRDSKSVAAARERVTEGRVDVLVCNAGLGLLGPLEALGEDAVASVLDVNVVGTVRMLQAFLPDMKRRGSGRVLVTGSVGGLMGLPFNDVYCASKFALEGLCESLAVLLLPFGVHLSLIECGPVHTAFMEKVLGSPEEVLDRTDIHTFHRFYQYLAHSKQVFREAAQNPEEVAEVFLTALRAPKPTLRYFTTERFLPLLRMRLDDPSGSNYVTAMHREVFGDVPAKAEAGAEAGGGAGPGAEDEAGRGAVGDPELGDPPAAPQ	–	–	–	–	–	–	kcat NAD^+ ([1]; 17β-HSDHs): 13.9 ± 0.8 s⁻¹; Km ([1]; 17β-HSDHs): 83 ± 5 µM; kcat NADP^+ ([2]; 17β-HSDHs): 16.7 ± 2.2 s⁻¹
CboFDH: wild type FDH from Candida Boidinii, Seq ID No: 13 (protein, listed as Candida boidinii) MKIVLVLYDAGKHAADEEKLYGCTENKLGIANWLKDQGHELITTSDKEGGNSVLDQHIPDADIIITTPFHPAYITKERIDKAKKLKLVVVAGVGSDHIDLDYINQTGKKISVLEVTGSNVVSVAEHVVMTMLVLVRNFVPAHEQIINHDWEVAAIAKDAYDIEGKTIATIGAGRIGYRVLERLVPFNPKELLYYDYQALPKDAEEKVGARRVENIEELVAQADIVTVNAPLHAGTKGLINKELLSKFKKGAWLVNTARGAICVAEDVAAALESGQLRGYGGDVWFPQPAPKDHPWRDMRNKYGAGNAMTPHYSGTTLDAQTRYAQGTKNILESFFTGKFDYRPQDIILLNGEYVTKAYGKHDKK	–	–	–	–	–	–	activity with NADP^+ [3]: 0.0013 U/mg; activity with NAD^+ [3]: 2.2 U/mg
